Source: publication PMC7968734
One block for each binder: values may come before it.

Target: replication protein A (RPA) heterotrimer, full-length (UniProt P15927)
Test: FluorIA

percent inhibition of EGFP-RAD52 binding at a molar ratio of 1:1: 50%
B1: RAD52(1-303) (domain or fragment)
chain: MSGTEEAILGGRDSHPAAGGGSVLCFGQCQYTAEEYQAIQKALRQRLGPEYISSRMAGGGQKVCYIEGHRVINLANEMFGYNGWAHSITQQNVDFVDLNNGKFYVGVCAFVRVQLKDGSYHEDVGYGVSEGLKSKALSLEKARKEAVTDGLKRALRSFGNALGNCILDKDYLRSLNKLPRQLPLEVDLTKAKRQDLEPSVEEARYNSCRPNMALGHPQLQQVTSPSRPSHAVIPADQDCSSRSLSSSAVESEATHQRKLRQKQLQQQFRERMEKQQVRVSTPSAEKSEAAPPAPPVTHSTPVT

RFU (NC, no inhibitor): 17100 RFU
B2: Full-length RAD52 tagged with 6X-His enhanced green fluorescent protein (EGFP-RAD52) (natural protein)
chain: MSGTEEAILGGRDSHPAAGGGSVLCFGQCQYTAEEYQAIQKALRQRLGPEYISSRMAGGGQKVCYIEGHRVINLANEMFGYNGWAHSITQQNVDFVDLNNGKFYVGVCAFVRVQLKDGSYHEDVGYGVSEGLKSKALSLEKARKEAVTDGLKRALRSFGNALGNCILDKDYLRSLNKLPRQLPLEVDLTKAKRQDLEPSVEEARYNSCRPNMALGHPQLQQVTSPSRPSHAVIPADQDCSSRSLSSSAVESEATHQRKLRQKQLQQQFRERMEKQQVRVSTPSAEKSEAAPPAPPVTHSTPVTVSEPLLEKDFLAGVTQELIKTLEDNSEKWAVTPDAGDGVVKPSSRADPAQTSDTLALNNQMVTQNRTPHSVCHQKPQAKSGSWDLQTYSADQRTTGNWESHRKSQDMKKRKYDPS
